Data: US11098102B2, “Insulin conjugates” (SANOFI, priority 2018, dated 2021)

What was measured:
[1] = molecular target: T1, immobilized human serum albumin (Homo sapiens, UniProt P02768); assay: Albumin binding: affinity chromatography on columns with immobilized human serum albumin (net retention time); details: isolated binders; HSA column 25° C., PBS pH 7.4/isopropanol gradient
T1 construct: purchased Chiralpak (Chiraltech) 34712
Experimental: In order to identify suitable binder molecules, which when bound to a peptide, such as an insulin, are able to improve the half-life in plasma and to prolong the profile of action, a system was established based on affinity chromatography with serum albumin columns, i.e. columns with immobilized serum albumin.
The net retention time of the binders (samples) was calculated according to the following formula: Net retention time=RetTimeSample−RetTimet0 marker
• Instrument: Waters Alliance 2795/Waters PDA 2996 or Waters H-Class UPLC equipped with a Waters Acquity photodiode-array detector • Software: Waters Empower 3 • Column: […]® HSA 50×4 mm; 5 μm Particle size • Chiraltech Order Numbers: HSA: 34712 • Eluent A: Phosphate Buffer saline (PBS) at pH=7.4 • Gibco PBS pH7.4 (10×) Phosphate Buffered Saline 500 ml; • Order Number: 70011-036 (500 ml) • Eluent B: Isopropanol • Fisher Order Number: A461-1 (10 • Gradient:
• Column temperature: 25° C. • Flow rate: 1.0 ml/min • Detection: λ=220 nm • Injection volume: 20 μL • Sample Conc.: 1 mg/ml insulin solution in PBS for insulin samples • 5 μL of 10 mM DMSO stock solution (DMSO evaporated and re-dissolved in 200 μL i-propanol/water 1:1 v/v) for isolated binder samples (250 μM, 0.2 mg/ml at 800 Da MolWeight) • t0 marker Sodium Nitrate (NaNO3) solution in water, 0.05 mg/ml • Diluted from aqueous 1 mg/ml stock solution (Fluka Order Number: 74246-100ML) • Reported Value Net retention time of sample: RetTime Sample−RetTime t0 marker
Affinity chromatography was carried out i) for insulin conjugates according to Examples 3.3 and 3.4 on a Waters Alliance Separation Module 2695 equipped with a Waters photodiode-array detector 2996 or Waters H-Class UPLC equipped with a Waters Acquity photodiode-array detector and ii) for isolated binders according to Example 2.11 on a Waters Alliance Separation Module 2795 equipped with a Waters photodiode-array detector 2996 or Waters H-Class UPLC equipped with a Waters Acquity photodiode-array detector.
Columns with immobilized human serum albumin (50×4 mm; 5 μm particle size) were purchased from Chiralpak and used for separations.
The columns with immobilized serum albumin were kept at 25° C. during the LC run, UV detection was carried out at 220 nm and injection volume was 20 μL.
The net retention time of the samples was reported according to Net retention time=RetTime Sample−RetTime t0 marker

[2] = molecular target: T2, simulated gastric fluid (pepsin) (Sus scrofa, UniProt P00791); assay: In vitro stability in simulated gastric fluid (Example 9); type: in vitro ADME, porcine; details: 37° C., 2 μM
T2 construct: from tissue; host or cells: porcine stomach mucosa
T2 sequence (P00791 60-385): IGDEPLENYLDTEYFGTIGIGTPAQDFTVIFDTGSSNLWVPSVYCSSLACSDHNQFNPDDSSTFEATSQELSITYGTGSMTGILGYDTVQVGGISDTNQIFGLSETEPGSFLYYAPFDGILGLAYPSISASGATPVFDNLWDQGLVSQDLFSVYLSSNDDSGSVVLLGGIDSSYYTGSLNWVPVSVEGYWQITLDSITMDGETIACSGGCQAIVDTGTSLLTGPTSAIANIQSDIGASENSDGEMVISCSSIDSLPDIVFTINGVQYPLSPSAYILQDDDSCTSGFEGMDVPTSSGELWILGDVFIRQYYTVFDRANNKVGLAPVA
Experimental: Two grams of sodium chloride and 3.2 g of purified pepsin (from porcine stomach mucosa, with an activity of 800 to 2500 units per mg of protein) were dissolved in 7.0 ml of hydrochloric acid. The volume was adjusted with water up to 1000 ml.
(§1) The stability determination was done using appropriate time points (for SIF and SGF 15, 30, 60, 120 and 240 minutes; for proteases 15, 30, 60 and 120 minutes). The incubation was done at 37° C. and the % of remaining parent compound was calculated in reference to a TO time point.
(§2) For the determination of the parent compound an appropriate bioanalytical LC-MS/MS or LC-HRMS method was used, using the supernatant, after protein precipitation with ethanol (1 eq. v/v) and a centrifugation step.
(§3) Compounds were dissolved in diluted hydrochloric acid at a final concentration of 40 μM. The compound concentration in the assay was 2 μM. A 1:20 dilution of the working solution was done into the protease buffer and samples are then incubated at 37° C., under stirring. At the appropriate time point and aliquot was taken, the reaction was quenched ethanol (1 eq. v/v), than centrifuged. The supernatant was analyzed.

α-Chymotrypsin = α-Chymotrypsin (Bos taurus, UniProt P00766); assay: In vitro proteolytic stability against α-chymotrypsin (Example 9); type: in vitro ADME; details: 37° C., 2 μM
Experimental: as §1, §2, §3

Cathepsin D = Cathepsin D (Homo sapiens, UniProt P07339); assay: In vitro proteolytic stability against cathepsin D (Example 9); type: in vitro ADME; details: 37° C., 2 μM
Sequence of Cathepsin D (P07339 65-412, species assumed): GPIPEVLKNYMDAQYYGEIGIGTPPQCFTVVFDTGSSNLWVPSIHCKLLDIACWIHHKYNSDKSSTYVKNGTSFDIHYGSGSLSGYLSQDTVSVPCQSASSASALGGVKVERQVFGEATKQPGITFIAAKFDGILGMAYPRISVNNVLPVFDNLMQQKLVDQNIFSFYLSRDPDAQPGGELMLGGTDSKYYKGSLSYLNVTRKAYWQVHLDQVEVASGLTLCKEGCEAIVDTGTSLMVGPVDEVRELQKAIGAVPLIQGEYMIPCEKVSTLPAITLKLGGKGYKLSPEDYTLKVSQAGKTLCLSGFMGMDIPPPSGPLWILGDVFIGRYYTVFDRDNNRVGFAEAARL
Experimental: as §1, §2, §3

[3] = molecular target: Insulin degrading enzyme, IDE (Homo sapiens, UniProt P14735); assay: In vitro proteolytic stability against insulin degrading enzyme (Example 9); type: in vitro ADME; details: 37° C., 2 μM
Experimental: as §1, §2, §3

[4] = molecular target: T3, insulin receptor isoform B (IR-B) (Homo sapiens, UniProt P06213); assay: Insulin receptor autophosphorylation assay (In-Cell Western, CHO cells, Example 8B); type: cell-based; parameters: expressed in transfected cells; host or cells: CHO cells; details: relative to human insulin
T3 sequence (P06213 28-758 limits assumed): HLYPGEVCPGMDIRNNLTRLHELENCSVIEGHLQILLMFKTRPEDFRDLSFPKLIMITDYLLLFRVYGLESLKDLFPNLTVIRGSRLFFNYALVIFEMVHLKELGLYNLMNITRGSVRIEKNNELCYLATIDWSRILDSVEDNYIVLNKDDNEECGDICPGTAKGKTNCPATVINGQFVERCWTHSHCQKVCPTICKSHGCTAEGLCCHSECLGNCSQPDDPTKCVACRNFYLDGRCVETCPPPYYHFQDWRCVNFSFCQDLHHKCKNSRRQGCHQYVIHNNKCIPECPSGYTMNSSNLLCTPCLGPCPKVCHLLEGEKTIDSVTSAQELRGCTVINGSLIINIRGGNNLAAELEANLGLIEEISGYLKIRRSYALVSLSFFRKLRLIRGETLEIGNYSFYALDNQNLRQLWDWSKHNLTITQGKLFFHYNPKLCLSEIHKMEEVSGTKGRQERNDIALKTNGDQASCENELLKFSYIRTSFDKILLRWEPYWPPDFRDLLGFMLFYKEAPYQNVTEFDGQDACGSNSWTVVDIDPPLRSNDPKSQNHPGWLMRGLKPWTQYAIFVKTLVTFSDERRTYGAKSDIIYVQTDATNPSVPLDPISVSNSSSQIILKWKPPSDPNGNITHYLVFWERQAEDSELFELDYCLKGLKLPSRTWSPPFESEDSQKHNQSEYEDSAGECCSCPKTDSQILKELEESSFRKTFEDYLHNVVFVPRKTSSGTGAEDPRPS
T3 sequence (P06213 763-1382 limits assumed): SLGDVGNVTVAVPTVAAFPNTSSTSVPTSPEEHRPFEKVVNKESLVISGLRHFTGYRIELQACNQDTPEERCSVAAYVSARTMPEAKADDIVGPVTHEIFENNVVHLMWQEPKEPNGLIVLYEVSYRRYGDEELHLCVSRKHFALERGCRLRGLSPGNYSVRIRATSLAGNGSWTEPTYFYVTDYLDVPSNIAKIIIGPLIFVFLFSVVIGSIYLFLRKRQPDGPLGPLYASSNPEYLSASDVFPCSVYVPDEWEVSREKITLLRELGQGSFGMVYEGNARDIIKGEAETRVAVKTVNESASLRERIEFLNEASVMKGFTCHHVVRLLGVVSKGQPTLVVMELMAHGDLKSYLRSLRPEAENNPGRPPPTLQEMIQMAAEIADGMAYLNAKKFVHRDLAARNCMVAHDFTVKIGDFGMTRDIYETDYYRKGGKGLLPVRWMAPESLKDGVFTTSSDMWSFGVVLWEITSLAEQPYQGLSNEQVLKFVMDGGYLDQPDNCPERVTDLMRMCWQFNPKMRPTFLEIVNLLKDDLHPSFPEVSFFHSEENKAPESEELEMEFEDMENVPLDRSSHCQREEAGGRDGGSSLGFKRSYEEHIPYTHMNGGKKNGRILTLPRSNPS

[5] = molecular target: T3, insulin receptor isoform B (IR-B); assay: Insulin receptor binding affinity assay of insulin analogs (Example 8A, SPA competition binding); parameters: expressed in transfected cells; host or cells: CHO cells overexpressing the IR; isolated plasma membranes; details: relative to human insulin; a value of 0 means below the detection limit
Experimental: Methods for determining the binding affinity of an insulin analog to an insulin receptor are well known in the art. […] The insulin receptor can be present in a membrane of a cell, e.g. of CHO (Chinese Hamster Ovary) cell, which overexpresses a recombinant insulin receptor. In an embodiment, the insulin receptor binding affinity is determined as described in the Examples section.
Insulin receptor binding affinity for the analogs listed in Table 4 was determined as described in Hartmann et al. (Effect of the long-acting insulin analogs glargine and degludec on cardiomyocyte cell signaling and function. Cardiovasc Diabetol. 2016; 15:96). Isolation of insulin receptor embedded plasma membranes (M-IR) and competition binding experiments were performed as previously described (Sommerfeld et al., PLoS One. 2010; 5 (3): e9540). Briefly, CHO-cells overexpressing the IR were collected and re-suspended in ice-cold 2.25 STM buffer (2.25 M sucrose, 5 mM Tris-HCl pH 7.4, 5 mM MgCl2, complete protease inhibitor) and disrupted using a Dounce homogenizer followed by sonication. The homogenate was overlaid with 0.8 STM buffer (0.8 M sucrose, 5 mM Tris-HCl pH 7.4, 5 mM MgCl2, complete protease inhibitor) and ultra-centrifuged for 90 min at 100,000 g. Plasma membranes at the interface were collected and washed twice with phosphate buffered saline (PBS). The final pellet was re-suspended in dilution buffer (50 mM Tris-HCl pH 7.4, 5 mM MgCl2, complete protease inhibitor) and again homogenized with a Dounce homogenizer. Competition binding experiments were performed in a binding buffer (50 mM Tris-HCl, 150 mM NaCl, 0.1% BSA, complete protease inhibitor, adjusted to pH 7.8) in 96-well microplates. In each well 2 μg isolated membrane was incubated with 0.25 mg wheat germ agglutinin polyvinyltoluene polyethylenimine scintillation proximity assay (SPA) beads. […] The radioactivity was measured at equilibrium in a microplate scintillation counter (Wallac Microbeta, Freiburg, Germany).”

T1 sequence (P02768 25-609): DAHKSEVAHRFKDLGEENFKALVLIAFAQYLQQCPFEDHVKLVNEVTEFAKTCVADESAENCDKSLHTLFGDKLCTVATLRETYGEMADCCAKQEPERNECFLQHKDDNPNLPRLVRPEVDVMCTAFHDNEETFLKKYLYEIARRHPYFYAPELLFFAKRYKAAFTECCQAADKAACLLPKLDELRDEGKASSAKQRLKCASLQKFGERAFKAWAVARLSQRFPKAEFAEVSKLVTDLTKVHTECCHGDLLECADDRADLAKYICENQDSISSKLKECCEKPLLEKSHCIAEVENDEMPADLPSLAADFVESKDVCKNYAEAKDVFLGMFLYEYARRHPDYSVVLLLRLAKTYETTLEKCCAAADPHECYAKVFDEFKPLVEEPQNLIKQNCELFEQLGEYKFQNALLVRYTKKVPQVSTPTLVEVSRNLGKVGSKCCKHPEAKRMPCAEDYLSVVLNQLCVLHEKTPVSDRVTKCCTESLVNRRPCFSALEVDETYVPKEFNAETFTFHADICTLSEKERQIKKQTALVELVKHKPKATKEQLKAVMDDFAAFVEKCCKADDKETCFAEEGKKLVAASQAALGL

Row | Compound | NRT [min] (net retention time on columns with immobilized human serum albumin) [1] | Percent remaining insulin analog, Gastric fluid (30 minutes) [2] | Percent remaining insulin analog, α-Chymotrypsin (120 minutes) (α-Chymotrypsin) | Percent remaining insulin analog, Cathepsin D (30 minutes) (Cathepsin D) | Percent remaining insulin analog, Insulin degrading enzyme, IDE (30 minutes) [3] | autophosphorylation activity [4] | Insulin-receptor binding affinity [5]
1 | O=C(O)CCCCCCCCCCCCCCCOc1ccc(S(=O)(=O)Nc2ncc(C(=O)NCCOCCOCC(=O)NCCOCCOCC(=O)O)cn2)cc1F [Binder 38] | 13.53 min | 36% | 34% | 62% | 86% | 0.03 | 0
2 | O=C(O)CCCCCCCCCCCc1cc(Oc2ccc(S(=O)(=O)Nc3ccc(C(=O)NCCOCCOCC(=O)NCCOCCOCC(=O)O)cn3)cc2)ccc1F [Binder 24] | 15.76 min | 52% | 40% | 59% | 86% | 0.04 | 0.01
3 | O=C(O)CCCCCCCCCCCCCc1cc(Oc2ccc(S(=O)(=O)Nc3ccc(C(=O)NCCOCCOCC(=O)NCCOCCOCC(=O)O)cn3)cc2)ccc1F [Binder 22] | 15.55 min | 52% | 99% | 20% | 77% | 0.04 | 0.01
4 | O=C(O)CCCCCCCCCCCCCc1ccc(CCOc2ccc(S(=O)(=O)Nc3ncc(C(=O)NCCOCCOCC(=O)NCCOCCOCC(=O)O)cn3)cc2)cc1 [Binder 12] | 14.95 min | 44% | 31% | 43% | 11% | 0.06 | 0.01
5 | O=C(O)CCCCCCCCCc1ccc(OCc2ccc(S(=O)(=O)Nc3ccc(C(=O)NCCOCCOCC(=O)NCCOCCOCC(=O)O)cc3)cc2)cc1 [Binder 2] | 17.88 min | 0% | 35% | 0% | 81% | 0.87 | 1.05
6 | O=C(O)CCCCCCCCCOc1ccc(S(=O)(=O)Nc2ccc(C(=O)NCCOCCOCC(=O)NCCOCCOCC(=O)O)cn2)cc1 [Binder 19] | 10.82 min | 0% | 30% | 0% | 98% | 0.32 | –
7 | O=C(O)CCCCCCCCCCCCCCOc1ccc(S(=O)(=O)Nc2ccc(C(=O)NCCOCCOCC(=O)NCCOCCOCC(=O)O)cn2)cc1 [Binder 7] | 14.65 min | 30% | 58% | 52% | 2% | 0.2 | 0.05
